This is an account of results in patent US20100305026A1.

In the test the target is CD44v6 (endogenous human CD44 variant isoforms containing exon v6) (human), P16070. The test is described as follows: cell-based or functional assay.

In turn, KEQWFGNRWHEGYR [human CD44v6 14-mer peptide having SEQ ID NO: 2] had an entry of InlB-coated latex beads into HeLa cells (block of entry) of 100%.
